# From patent US20200262894A1 (FRED HUTCHINSON CANCER RESEARCH CENTER, published 2020)
# Substitutions are numbered along the chain they refer to. Non-standard residues stand in square brackets, D forms with d.
# T1: STII peptide Ac-C(dPEG4)NWSHPQFEK-amide, maleimide-coupled to BSA carrier protein (also: maleimide-coupled to BSA carrier protein)
# T1 construct: on a cytometric bead array as BSA conjugate
# T1 peptide: Ac-C[dPEG4]NWSHPQFEK-NH2
# T2: STII peptide H2N-CGNWSHPQFEKGC-OH, maleimide-coupled to BSA carrier protein (cysteine pairing not given here; also: maleimide-coupled to BSA carrier protein)
# T2 construct: on a cytometric bead array as BSA conjugate
# T2 peptide: H-CGNWSHPQFEKGC-OH
# T3: STII peptide H2N-CGNWSHPQFEK-amide, maleimide-coupled to BSA carrier protein (also: maleimide-coupled to BSA carrier protein)
# T3 construct: on a cytometric bead array as BSA conjugate
# T3 peptide: H-CGNWSHPQFEK-NH2
# B1: anti-STII monoclonal antibody 4E2 (antibody, V domains shown)
# VH: QVQLQQSGAELARPGASVKLSCTASGYTFTSYGITWVRQRTGQGLEWIGEIFPGSGDTSYGEKLKGQATLTTDKSSSTAYMQLSSLTSEDSAVYFCARRYRYIYHAMDYWGQGTSVTVSS
# VL: DILMTQTPLSLPVSLGDQASISCRSSQSIVHSNGNTYLEWYLQKPGQSPKLLIYKVSNRFSGVPDRFSGSGSGTDFTLKISRVEAEDLGVYYCFQGSHVPLTFGAGTKLELK
# notes: also called 4E2 mAb
# B2: anti-STII monoclonal antibody 3E8 (antibody, V domains shown)
# VH: EVQLVETGGGFVKPGGSLKLSCAASGFTFSSYGMSWVRQTPEKRLEWVAAITSDGGGTHYPDTVKGRFTISRDFAKNTLYLQMSSLRSEDTAWYFCARHEPRLIAWFAHWGQGTLVTVSA
# VL: B1 VL with I2V, N35Y, K55E, S81I, L101W, A105G, L111I
# notes: also called 3E8 mAb; STII-specific mAb 3E8
# B3: anti-STII monoclonal antibody 5G2 (antibody, V domains shown)
# VH: B1 VH with L64F
# VL: B1 VL with S81R
# notes: also called 5G2 mAb; anti-STII 5G2 mAb
# Biological target: T1, STII peptide …
# Test: flow cytometry, cytometric bead array with BSA-coupled peptides
row,Binder,binding result
1,B1,binds
2,B2,binds
3,B3,binds

# Biological target: T2, STII peptide H2N-CGNWSHPQFEKGC-OH, …
# Test: as above
row,Binder,binding result
1,B1,binds
2,B2,binds
3,B3,binds

# Biological target: T3, STII peptide H2N-CGNWSHPQFEK-amide, …
# Test: as above
row,Binder,binding result
1,B1,binds
2,B2,binds
3,B3,binds
